In one experiment the target is YC-PDlim2 (human) (UniProt Q96JY6). The experiment can be described thus: split reporter (BiFC, NanoBiT).
Experiment [1] addresses PDlim2 fused with the GAL4 DNA-binding domain (pBind-PDlim2) (human) (UniProt Q96JY6). The experiment can be described thus: two-hybrid.
For experiment [2], the target named is T1, PDlim2 PDZ domain (residues 1-83) (human, UniProt Q96JY6 1-83).
T1 construct: also called PDZ region (1-83) of PDlim2
T1 sequence (looked up): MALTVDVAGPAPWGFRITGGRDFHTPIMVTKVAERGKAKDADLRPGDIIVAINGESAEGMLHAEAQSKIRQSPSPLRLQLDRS
The experiment can be described thus: crystal structure. The following applies: both partners purified.

In the experiment with YC-PDlim2 (human), YN-HN12-NS1 wt (natural protein) came in with a mean fluorescence intensity (MFI) of 1120 and a percent of cells in the high fluorescence zone of 10.9%.
Consider “HN12-NS1 fused with the VP16 transcription activation domain (pACT-NS1) (natural protein)”, for which the relative luciferase activity (firefly/Renilla) in experiment [1] is 160 RLU.
Consider TIESEV [C-terminal hexapeptide of HN12-NS1 (TIESEV)], for which the binding result in experiment [2] is “binds”.

These data come from paper PMC3100292 (PLoS ONE, 2011).
